In US20200102387A1:
Where two headings read alike, the source gives them in different places. Values belong to the substance of their own block, whether it stands above or below them.

How the values were obtained:
[1] = target: FcγR2A (CD32aR131) (human) (UniProt P12318); assay: cell binding, FcγR-engineered HEK293 cells
[2] = target: FcγR2A (CD32aH131) (human) (UniProt P12318); assay: cell binding, FcγR-engineered HEK293 cells
[3] = target: FcγR1 (CD64) (human) (UniProt P12314); assay: cell binding, FcγR-engineered HEK293 cells
[4] = target: FcγR2B (human) (UniProt P31994); assay: cell binding, FcγR-engineered HEK293 cells
[5] = target: FcγR3A (CD16aV158) (human) (UniProt P08637); assay: cell binding, FcγR-engineered HEK293 cells
[6] = target: FcγR2B (human) (UniProt P31994); assay: cell binding, FcγR-engineered HEK293 cells; remark: listed apart in the source
[7] = target: FcγR3A (CD16aF158) (human) (UniProt P08637); assay: cell binding, FcγR-engineered HEK293 cells
[8] = target: FcγR3A (CD16aV158) (human) (UniProt P08637); assay: cell binding, FcγR-engineered HEK293 cells; remark: listed apart in the source
[9] = target: mouse SIRPα on cells (mouse) (UniProt P97797); assay: flow cytometry on Mouse SIRPα-CHO-K1 cells
[10] = target: rat SIRPα on CHO-K1 cells (rat) (UniProt P97710); assay: flow cytometry on Rat SIRPα-CHO-K1 cells
Sequence of rat SIRPα on CHO-K1 cells (rat) (P97710 32-509): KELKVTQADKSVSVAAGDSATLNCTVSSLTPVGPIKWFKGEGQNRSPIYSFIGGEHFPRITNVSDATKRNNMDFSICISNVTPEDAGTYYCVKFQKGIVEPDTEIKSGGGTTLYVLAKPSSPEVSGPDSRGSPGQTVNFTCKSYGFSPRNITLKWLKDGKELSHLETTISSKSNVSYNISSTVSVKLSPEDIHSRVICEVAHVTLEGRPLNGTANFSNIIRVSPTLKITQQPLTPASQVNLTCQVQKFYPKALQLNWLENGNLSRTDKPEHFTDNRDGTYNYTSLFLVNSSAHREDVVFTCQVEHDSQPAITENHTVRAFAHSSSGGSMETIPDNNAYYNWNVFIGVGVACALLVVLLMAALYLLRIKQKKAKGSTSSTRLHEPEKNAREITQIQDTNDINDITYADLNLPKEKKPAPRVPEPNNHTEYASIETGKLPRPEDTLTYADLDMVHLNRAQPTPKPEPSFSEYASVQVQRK

Sequence of FcγR1 (CD64) (human) (P12314 16-374): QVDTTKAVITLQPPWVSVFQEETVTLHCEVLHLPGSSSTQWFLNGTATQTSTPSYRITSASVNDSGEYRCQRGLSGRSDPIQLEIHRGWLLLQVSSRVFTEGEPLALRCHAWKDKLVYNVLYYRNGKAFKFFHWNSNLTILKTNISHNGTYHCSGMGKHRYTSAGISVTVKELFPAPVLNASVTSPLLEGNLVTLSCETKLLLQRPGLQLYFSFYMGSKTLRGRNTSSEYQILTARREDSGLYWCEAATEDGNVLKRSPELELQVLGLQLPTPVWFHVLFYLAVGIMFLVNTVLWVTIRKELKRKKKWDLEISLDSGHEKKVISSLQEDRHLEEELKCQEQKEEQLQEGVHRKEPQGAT
Sequence of FcγR2A (CD32aH131) (human) (P12318 34-317): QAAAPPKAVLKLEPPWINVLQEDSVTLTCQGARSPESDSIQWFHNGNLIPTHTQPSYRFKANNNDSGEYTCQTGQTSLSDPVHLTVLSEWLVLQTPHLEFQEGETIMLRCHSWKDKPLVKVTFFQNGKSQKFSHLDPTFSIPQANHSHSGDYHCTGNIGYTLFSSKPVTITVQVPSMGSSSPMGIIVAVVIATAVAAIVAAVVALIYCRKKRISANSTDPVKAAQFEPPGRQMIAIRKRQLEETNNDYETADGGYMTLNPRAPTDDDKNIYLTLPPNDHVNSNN
Sequence of FcγR2B (human) (P31994 43-310): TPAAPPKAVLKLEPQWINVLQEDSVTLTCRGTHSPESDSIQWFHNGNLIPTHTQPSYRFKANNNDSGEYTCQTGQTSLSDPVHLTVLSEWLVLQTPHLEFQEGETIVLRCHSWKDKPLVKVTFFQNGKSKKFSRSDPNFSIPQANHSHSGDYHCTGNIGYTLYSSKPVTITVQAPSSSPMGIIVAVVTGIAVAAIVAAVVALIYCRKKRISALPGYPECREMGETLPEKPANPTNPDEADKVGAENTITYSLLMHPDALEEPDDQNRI
Sequence of FcγR3A (CD16aV158) (human) (P08637 17-254 F176V): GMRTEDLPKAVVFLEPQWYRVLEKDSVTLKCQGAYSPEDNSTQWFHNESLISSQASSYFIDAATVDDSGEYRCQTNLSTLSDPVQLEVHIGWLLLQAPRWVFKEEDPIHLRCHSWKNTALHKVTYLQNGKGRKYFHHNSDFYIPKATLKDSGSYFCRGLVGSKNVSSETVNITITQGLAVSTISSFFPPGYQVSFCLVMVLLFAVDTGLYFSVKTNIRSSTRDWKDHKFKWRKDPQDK
Sequence of FcγR2A (CD32aR131) (human) (P12318 34-317 H167R): as the sequence (P12318 34-317) above, with H134R counted along it
Sequence of mouse SIRPα on cells (mouse) (P97797 32-513): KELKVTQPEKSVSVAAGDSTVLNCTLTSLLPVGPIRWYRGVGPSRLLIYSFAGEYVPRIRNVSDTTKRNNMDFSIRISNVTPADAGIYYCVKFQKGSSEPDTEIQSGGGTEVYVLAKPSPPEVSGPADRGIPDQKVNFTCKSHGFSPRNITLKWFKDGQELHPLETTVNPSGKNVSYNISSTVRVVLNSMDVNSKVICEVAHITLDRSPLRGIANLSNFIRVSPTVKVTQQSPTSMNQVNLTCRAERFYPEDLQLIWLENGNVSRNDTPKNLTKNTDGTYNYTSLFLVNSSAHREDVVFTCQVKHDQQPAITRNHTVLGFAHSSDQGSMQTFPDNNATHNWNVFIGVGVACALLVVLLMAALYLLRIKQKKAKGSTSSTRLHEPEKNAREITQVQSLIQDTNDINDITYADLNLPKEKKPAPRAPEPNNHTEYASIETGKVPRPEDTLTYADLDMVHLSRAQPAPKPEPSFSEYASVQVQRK
Sequence of FcγR3A (CD16aF158) (human) (P08637 17-254): as the sequence (P08637 17-254 F176V) above, with V160F counted along it

EC50 [1]: 188 nM
EC50 [2]: 361 nM
EC50 [3]: 0.83 nM
Substance: Commercially Available IgG1 (antibody)

EC50 [4]: 2240 nM
EC50 [5]: 127 nM
EC50 [6]: 1200 nM
EC50 [7]: 311 nM
EC50 [1]: 90.2 nM
EC50 [8]: 449 nM
EC50 [2]: 137 nM
EC50 [3]: 1.18 nM
Substance: Isotype Control-IgG1 (antibody)

EC50 (read off the curve) [9]: 2 nM
Substance: anti-mouse-SIRPα antibody P84

EC50 (read off the curve) [10]: 2 nM
Substance: anti-rat-SIRPα antibody OX-41
